Source: patent US20260139048A1 (NANJING LEGEND BIOTECH, published 2026)
Like-named read-outs stand apart in the source and are kept apart here.

Assays:
[1] = biological target: T1, TIGIT on TIGIT-over expressing NFAT-Luc/Jurkat effector cells (GenScript reporter cell line) (UniProt Q495A1 22-244, limits assumed); assay: cell-based or functional assay
T1 sequence (looked up): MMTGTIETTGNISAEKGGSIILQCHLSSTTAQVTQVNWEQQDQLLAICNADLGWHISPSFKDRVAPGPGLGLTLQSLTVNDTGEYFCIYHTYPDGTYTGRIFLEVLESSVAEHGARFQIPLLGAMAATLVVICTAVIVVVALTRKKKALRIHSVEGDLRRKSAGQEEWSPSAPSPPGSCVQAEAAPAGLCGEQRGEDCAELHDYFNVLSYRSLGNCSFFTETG

[2] = biological target: T1, TIGIT on TIGIT-over expressing …; assay: cell-based or functional assay; remark: listed apart in the source
[3] = biological target: T2, human TIGIT expressed on CHO-K1 cells (human, UniProt Q495A1 22-244); assay: flow cytometry on CHO-K1 cells expressing human TIGIT
T2 construct: whole, on cells; also called human TIGIT-CHO-K1 cells; human TIGIT over-expressing cell line
T2 sequence (looked up): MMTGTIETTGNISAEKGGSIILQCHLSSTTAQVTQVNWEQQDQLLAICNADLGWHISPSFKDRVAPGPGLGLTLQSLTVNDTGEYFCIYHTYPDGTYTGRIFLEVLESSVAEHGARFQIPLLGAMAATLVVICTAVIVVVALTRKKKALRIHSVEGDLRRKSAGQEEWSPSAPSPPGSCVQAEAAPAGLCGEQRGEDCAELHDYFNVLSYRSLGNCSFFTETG

[4] = biological target: T2, human TIGIT expressed on CHO-K1 cells; assay: as above; remark: listed apart in the source
[5] = biological target: T3, cynomolgus TIGIT expressed on CHO-K1 cells (cynomolgus, UniProt A0A7N9I9V4 89-312); assay: flow cytometry on CHO-K1 cells expressing cynomolgus TIGIT
T3 construct: whole, on cells; also called cynomolgus TIGIT over-expressing cell line

[6] = biological target: T4, His-tagged human TIGIT (human, UniProt Q495A1 22-141); assay: SPR (Biacore T200), antibody captured, His-tagged TIGIT analyte
T4 construct: SPR analyte; also called human TIGIT protein; not shown: His tag
T4 sequence: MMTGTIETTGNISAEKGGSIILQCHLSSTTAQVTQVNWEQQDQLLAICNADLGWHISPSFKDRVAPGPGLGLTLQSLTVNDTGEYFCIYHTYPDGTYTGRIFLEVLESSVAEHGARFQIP

[7] = biological target: T5, His-tagged cynomolgus TIGIT (cynomolgus, UniProt A0A7N9I9V4 89-209); assay: as above
T5 construct: SPR analyte; also called cynomolgus TIGIT protein; not shown: His tag

[8] = biological target: T4, His-tagged human TIGIT; assay: as above; remark: listed apart in the source
[9] = biological target: T5, His-tagged cynomolgus TIGIT; assay: as above; remark: listed apart in the source
[10] = biological target: T2, human TIGIT expressed on CHO-K1 cells; assay: flow cytometry competition: biotinylated CD155-Fc on human TIGIT-CHO-K1 cells
[11] = biological target: T2, human TIGIT expressed on CHO-K1 cells; assay: as above; remark: listed apart in the source
[12] = biological target: T4, His-tagged human TIGIT; assay: SPR experiment 3, IgG from HEK293 supernatant captured
[13] = biological target: T4, His-tagged human TIGIT; assay: SPR experiment 2, IgG from HEK293 supernatant captured

T3 sequence (A0A7N9I9V4 entry or part of it): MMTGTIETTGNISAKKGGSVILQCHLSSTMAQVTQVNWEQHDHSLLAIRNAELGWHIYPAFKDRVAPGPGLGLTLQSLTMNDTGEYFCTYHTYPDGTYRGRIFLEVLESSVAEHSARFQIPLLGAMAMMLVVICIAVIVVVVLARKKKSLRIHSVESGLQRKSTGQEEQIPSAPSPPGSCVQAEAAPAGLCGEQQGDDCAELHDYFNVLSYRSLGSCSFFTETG
T5 sequence (A0A7N9I9V4 entry or part of it): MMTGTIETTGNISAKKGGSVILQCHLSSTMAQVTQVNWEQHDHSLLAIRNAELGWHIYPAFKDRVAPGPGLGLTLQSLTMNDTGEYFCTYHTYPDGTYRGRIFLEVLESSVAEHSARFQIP

Binder | Bottom (RLU) [2] [RLU] | EC50 [2] [nM] | Top (RLU) [2] [RLU] | EC50 [4] [nM] | EC50 [5] [nM] | Kd [8] [nM] | koff [8] [s⁻¹] | kon [8] [M⁻¹ s⁻¹] | Kd [9] [nM] | koff [9] [s⁻¹] | kon [9] [M⁻¹ s⁻¹] | IC50 [11] [nM] | Kd [13] [nM] | koff [13] [s⁻¹] | kon [13] [M⁻¹ s⁻¹] | further results
Hu1217-2-2 (anti-TIGIT positive control antibody) (antibody, V domains shown) VH: EVQLVESGGGLVQPGGSLRLSCAASGFTFSDYYMYWVRQAPGKGLEWVAYITKGGGSTYYPDSVKGRFTISRDNAKNTLYLQMNSLRAEDTAVYYCARQTNYDFTMDYWGQGTLVTVSS VL: EIVMTQSPATLSVSPGERATLSCKASQDVGTSVAWYQQKPGQAPRLLIYWASARHTGIPARFSGSGSGTEFTLTISSLQSEDFAVYYCQQYSSYPLTFGGGTKVEIK | 52900 | 11.1 | 163000 | 0.65 | 43 | 0.051 | 5.1e-05 | 1e+06 | 470 | 0.063 | 130000 | 0.62 |  |  |  | Bottom (RLU) [1]: 10500 RLU; EC50 [1]: 15.6 nM; Top (RLU) [1]: 51700 RLU; EC50 [3]: 0.46 nM; Kd [6]: 0.11 nM; koff [6]: 0.00013 s⁻¹; kon [6]: 1.2e+06 M⁻¹ s⁻¹; Kd [7]: 280 nM; koff [7]: 0.044 s⁻¹; kon [7]: 160000 M⁻¹ s⁻¹; IC50 [10]: 0.81 nM
huTIGIT-19-1 (antibody, human IgG1, kappa, V domains shown, Humanized IgG; also called 19VH4.M9 + 19VL1.M4) VH: QVQLVQSGAEVKKPGASVKVSCKASGYTFTRYSMYWVRQAPGQGLEWIAFIDAYSGGSTYNQRFRGKATLTVDTSISTAYMELSRLRSDDTAVYYCARGGDYGWYLGVWGQGTLVTVSS VL: DIQMTQSPSSLSASVGDRVTITCRPSENIYTYLSWYQQKPGKAPKLLIYNAKSLPSGVPSRFSGSGSGTDFTLTISSLQPEDFATYYCQHHYGNPLTFGQGTKVEIKR | 53900 | 2.05 | 144000 | 0.294 | 0.473 | 0.16 | 0.00019 | 1.1e+06 | 0.047 | 3.7e-05 | 790000 | 0.22 |  |  |  | 
huTIGIT-19-2 (antibody, human IgG1, kappa, V domains shown, Humanized IgG; also called 19VH4.M9 + 19VL1.M7) VH: QVQLVQSGAEVKKPGASVKVSCKASGYTFTRYSMYWVRQAPGQGLEWIAFIDAYSGGSTYNQRFRGKATLTVDTSISTAYMELSRLRSDDTAVYYCARGGDYGWYLGVWGQGTLVTVSS VL: DIQMTQSPSSLSASVGDRVTITCRASQSIYSYLSWYQQKPGKAPKLLIYNAKSLPSGVPSRFSGSGSGTDFTLTISSLQPEDFATYYCQHHYGNPLTFGQGTKVEIKR | 55200 | 2.39 | 155000 | 0.256 | 0.44 | 0.19 | 0.00021 | 1.1e+06 | 0.055 | 5.2e-05 | 950000 | 0.24 |  |  |  | 
huTIGIT-19-3 (antibody, human IgG1, kappa, V domains shown, Humanized IgG; also called 19VH4.M10 + 19VL1.M4) VH: QVQLVQSGAEVKKPGASVKVSCKASGYTFTRYSMYWVRQAPGQGLEWIAFIDAYSGGSTYAQKFQGKATLTVDTSISTAYMELSRLRSDDTAVYYCARGGDYGWYLGVWGQGTLVTVSS VL: DIQMTQSPSSLSASVGDRVTITCRPSENIYTYLSWYQQKPGKAPKLLIYNAKSLPSGVPSRFSGSGSGTDFTLTISSLQPEDFATYYCQHHYGNPLTFGQGTKVEIKR | 53700 | 2.65 | 142000 | 0.196 | 0.384 | 0.28 | 0.0003 | 1.1e+06 | 0.054 | 4.1e-05 | 760000 | 0.21 |  |  |  | 
huTIGIT-19-4 (antibody, human IgG1, kappa, V domains shown, Humanized IgG; also called 19VH4.M10 + 19VL1.M7) VH: QVQLVQSGAEVKKPGASVKVSCKASGYTFTRYSMYWVRQAPGQGLEWIAFIDAYSGGSTYAQKFQGKATLTVDTSISTAYMELSRLRSDDTAVYYCARGGDYGWYLGVWGQGTLVTVSS VL: DIQMTQSPSSLSASVGDRVTITCRASQSIYSYLSWYQQKPGKAPKLLIYNAKSLPSGVPSRFSGSGSGTDFTLTISSLQPEDFATYYCQHHYGNPLTFGQGTKVEIKR | 51300 | 4.28 | 148000 | 0.172 | 0.408 | 0.49 | 0.00059 | 1.2e+06 | 0.087 | 7.3e-05 | 840000 | 0.26 |  |  |  | 
reshaped TIGIT-3 antibody 3VH3 + 3VL1.M3 (antibody, V domains shown, Full-length IgG, tested as HEK293 supernatant) VH: EVQLVESGGGLVQPGGSLRLSCAASGFTFSSYGMSWVRQAPGKGLELVATIKSDGGSTNLPDSVKGRFTISRDNSKNTLYLQMNSLRAEDTAVYYCVRGYFDYWGQGTTVTVSS VL: DIQMTQSPSSLSASVGDRVTITCKASQDVKTAVAWYQQKPGKVPKLLIYWASTRHSGVPSRFSGSGSGTDFTLTISSLQPEDVATYYCQQYYSTPYTFGGGTKVEIK |  |  |  |  |  |  |  |  |  |  |  |  |  |  |  | Kd [12]: 46 nM; koff [12]: 0.0089 s⁻¹; kon [12]: 190000 M⁻¹ s⁻¹
huTIGIT-6-1 (antibody, human IgG1, kappa, V domains shown, Humanized IgG; also called 6VH6.M4 + 6VL1.M1) VH: QVQLVQSGAEVKKPGASVKVSCKASGYTITENTMHWVRQAPGQRLEWIGGINPNQGGTSYSQKFQGRATLTVDTSASTAYMELSSLRSEDTAVYYCTRSSYYRYDLDYWGQGTTVTVSS VL: DIQMTQSPSSLSASVGDRVTITCQASQDIKTALAWYQQKPGKAPKLLIYSASYRYTGVPSRFSGSGSGTDFTFTISSLQPEDIATYYCHQHYTTPWTFGGGTKLEIKR | 51200 | 9.1 | 131000 | 1.16 | 4.69 | 0.21 | 5.6e-05 | 260000 | 75 | 0.0044 | 59000 | 1.04 | 0.34 | 9.8e-05 | 280000 | 
huTIGIT-6-2 (antibody, human IgG1, kappa, V domains shown, Humanized IgG; also called 6VH6.M5 + 6VL1.M1) VH: QVQLVQSGAEVKKPGASVKVSCKASGYTITENTMHWVRQAPGQRLEWIGGINPNNAGTSYSQKFQGRATLTVDTSASTAYMELSSLRSEDTAVYYCTRSSYYRYDLDYWGQGTTVTVSS VL: DIQMTQSPSSLSASVGDRVTITCQASQDIKTALAWYQQKPGKAPKLLIYSASYRYTGVPSRFSGSGSGTDFTFTISSLQPEDIATYYCHQHYTTPWTFGGGTKLEIKR | 49800 | 9.03 | 129000 | 0.745 | 4.98 | 0.27 | 9.6e-05 | 350000 | 110 | 0.0074 | 69000 | 0.975 | 0.71 | 0.00022 | 300000 | 
huTIGIT-6-3 (antibody, human IgG1, kappa, V domains shown, Humanized IgG; also called 6VH6.M6 + 6VL1.M1) VH: QVQLVQSGAEVKKPGASVKVSCKASGYTFTENAMHWVRQAPGQRLEWIGGINPNQGGTSYSQKFQGRATLTVDTSASTAYMELSSLRSEDTAVYYCTRSSYYRYDLDYWGQGTTVTVSS VL: DIQMTQSPSSLSASVGDRVTITCQASQDIKTALAWYQQKPGKAPKLLIYSASYRYTGVPSRFSGSGSGTDFTFTISSLQPEDIATYYCHQHYTTPWTFGGGTKLEIKR | 49400 | 11.1 | 135000 | 1.11 | 8.2 | 0.29 | 9.8e-05 | 340000 | 130 | 0.0078 | 61000 | 1.1 | 0.64 | 0.00017 | 270000 | 
TIGIT-100 chimeric antibody (antibody, human IgG1, kappa, V domains shown, Full-length chimeric IgG1 kappa) VH: QVQLQQPGPELVKPGASVKISCKASGYSFTDYNMNWVKQSNGKSLEWIGVINPNSGTDNYNQKFKGKATLTVDQSSSTAYMQLNSLTSEDSAVYFCARGVYFGNYFDSWGQGTTLTVSS VL: DIVMTQSPASLSASVGETVTITCRASENIYSSLAWYQQKQGKSPQLLVFNAKTLTEGVPSRFSGSGSGTQFSLKINSLQPEDFGSYYCQHHYGAPWTFGGGTKLEIKR |  |  |  |  |  |  |  |  |  |  |  |  |  |  |  | Bottom (RLU) [1]: 4520 RLU; EC50 [1]: > 100 nM; Top (RLU) [1]: 11700 RLU; EC50 [3]: 0.55 nM; Kd [6]: 6.6 nM; koff [6]: 0.014 s⁻¹; kon [6]: 2.2e+06 M⁻¹ s⁻¹; Kd [7]: 29 nM; koff [7]: 0.012 s⁻¹; kon [7]: 420000 M⁻¹ s⁻¹; IC50 [10]: 0.82 nM
